B1: RV152 (VHH)
VHH: QVQLQESGGGLVQAGGSLRLSCAASGRTASSYATGWFRQAPGKEREFVAAIMWSASITHYTDSVKGRFTISRDNAKNTVYLQMNSLKPEDTAVYYCAASKGIIATQAISAYDYWGQGTQVTVSS
B2: RV126 (VHH)
VHH: QVQLQESGGGLVQPGGSLRLSCAASGSIFRFNAMGWYRQAPGNQRDQQRELVAVATNHGTTNYADSVKGRFTISRDNAKNTVALQMNSLKPEDTAVYYCNIRNRLTGDDYWGQGTQVTVSS
B3: RV110 (VHH)
VHH: QVQLQESGGGLVQAGGSLRLSCVASGRSFSTSAMGWFRQTPGKEREFVAAISTSGRPTYYADSVKGRGTISRDNAKATVYLEMNSLKPEDTAAYYCAAGMRPRLTGDYYSTDEYDYWGQGTQVTVSS
B4: RV141 (VHH)
VHH: QVQLQQSGGGLVQAGGSLRLSCAASGRTFSRYRMGWFRQAPGKEREFVAAINWSGGRTYYVDSMEGRFTISRDNAKNTVYLQMNSLKPEDTAVYRCAAQDRLTGNVYYHEEYDYWGQGTQVTVSS
B5: RV145 (VHH)
VHH: QVQLQESGGGLVQAGASLRLSCAASGLTFSSYRMGWFRQAPGKEREFVSAINWSGGNTYYADSLKGRFTISRDNAKNTVYLQMNSLKPEDTAVYYCASQWRLSGVDPLRAHEYEYWGQGTQVTVSS
B6: RV108 (VHH)
VHH: QVQLQESGGGLVQAGGSLRLSCVASGRTPSRFFMAWFRQSPGKEREFVARINWGGGNTYYADSVKSRFTISMNNARNTAYLQMNNLKPEDTAVYICAANSDLETNVASLYDYWGQGTQVTVSS
B7: RV106 (VHH)
VHH: QVQLQESGGGLVQAGGSLRLSCAASGLTFSSYAMGWFRQAPGKEREFVASSSRIEGIIDYADSVKGRFTISRDNAKNTVYLQMDSLKPEDTAVYFCAATRAIIAGRSRSAYDYWGQGTQVTVSS
B8: RV134 (VHH)
VHH: QVQLQESGGGLVQAGGSLRLSCAASGLTFAFYTVGWFRQAPGKEREFVGGIIWAGGRTSYADSVKGRFTISRDNAENTVYLQMNSLRPEDTAVYYCAAKNRLTSTNEYDFWGQGTQVTVSS
B9: RV124 (VHH)
VHH: QVQLQQSGGGLVQPGGSLRLSCAASGIISSIYAMGWYRQAPGKQRELVATAGRVTNYADSVKDRFTISRDNAKNTVYLQMNSLKPEDTAVYYCNARNRLTDDNYWGQGTQVTVSS
B10: RV139 (VHH)
VHH: QVQLQESGGGLVQAGGSLRLSCAASGPTFSRVTTMGWFRQAPGKDREFVGAISWSDGITYYADSVKGRFTISRDNAKNTMFLQMNSLKPEDTAVYYCGAKIHGGSWFPNYEQYEGMYDFWGQGTQVTVSS
B11: RV107 (VHH)
VHH: QVQLQESGGGLVQAGGSLRLSCTASGRTFDGVNMAWFRQIPGKEREFVATTLWRGNVPYYTDSVEGRFTISSDNAKNTGYLQMNSLKPEDTAVYYCAARTGSTFLSSALAQSEAVYSIWGQGTQVTVSS
notes: also called VHH RV107; source: S. cerevisiae, purified from the culture supernatant (IMAC, Ni-NTA)
B12: RV104 (VHH)
VHH: QVQLQESGGGLVQAGGSLRLSCTASGRTNSNYFMTWFRQAPGKEREFVAIINHITGSTEYVDSVKGRFIISRDNAKNTVYLQMDSLKPEDTAVYYCASGRIYSAIPGLYDYWGQGTRVTVSS
notes: also called VHH RV104; source: S. cerevisiae, purified from the culture supernatant (IMAC, Ni-NTA)
B13: RV136 (VHH)
VHH: QVQLQESGGGLVQAGGSLRLSCAASGRTFSRNTMGWFRQAPGKEREFVAAITGGGSTYYADSLKGRFTISRDNAKNTLYLQMNSLKPEDTAIYYCAQYKSSIYFIDYYLRIGDNYDYWGQGTQVTVSS
notes: source: S. cerevisiae, purified from the culture supernatant (IMAC, Ni-NTA)
B14: RV148 (VHH)
VHH: QVQLQQSGGGLVQAGDSLRVSCAASGRTFSSYVLAWFRQAPGKEREFVAVVGWTGARKEYTDSVKGRFTISRDNAKNTVYLQMNSLKPEDTAVYYCAAGRYYIADGSLYDFWGQGTQVTVSS
notes: as for B13
B15: RV115 (VHH)
VHH: QVQLQESGGGLVQPGGSLRLSCAVSGSMFSIDAMGWYRQDPGEERELVAAITSGGRTSYADSVKGRFTISRDNANNAVYLQMNNLKPEDTAVYYCNADAVAPFRMTYWGKGTLVTVSS
notes: also called VHH RV115; source: S. cerevisiae, purified from the culture supernatant (IMAC, Ni-NTA)
B16: RV150 (VHH)
VHH: QVQLQESGGGLVQAGGSLRLSCAASGRTLSSYAMGWFRQAPGKEREFVGAISWSGPMLYYGDSAKGRFTISRDNAKNTVYLQMNTLKPEDTAVYYCAAANRLTAEGWQQGYNYDYWGQGTQVTVSS
notes: also called VHH RV150; source: S. cerevisiae, purified from the culture supernatant (IMAC, Ni-NTA)
B17: SBV Gc head domain (SBV-Gc_(head)) (domain or fragment)
chain: INCKNIQSTQLTIEHLSKCMAFYQNKTSSPVVINEIISDASVDEQELIKSLNLNCNVIDRFISESSVIETQVYYEYIKSQLCPLQVHDIFTINSASNIQWKALARSFTLGVCNTNPHKHICRCLESMQMCTSTKTDHAREMSIYYDGHPDRFEHDMKIILNIMRYIVPGLGRVLLDQIKQTKDYQALRHIQGKLSPKSQSNLQLKGFLEFVDFILGANVTIEKTPQTLTTLSLI
notes: not shown: Twin Strep-tag, C-terminal, kept
B18: SB14 (VHH)
VHH: QVQLQQSGGGLVQAGGSLRLSCTASGRTFSTYVMGWFRQAPGKEREFVGAISWSGGSTVYADSVKGRFTISRDDAKNTVYLQMNSLKPEDTAVYYCAADDSSWYLVLDAYEYDYWGQGTQVTVSS
notes: as for B13
B19: SB13 (VHH)
VHH: QVQLQESGGGLVQAGDSLRLSCAVSGRTVSSNVMAWFRQAPGKEREAVAFIDSGSGGWPYYSDSVKGRFTISRDNAKNMVYLQMDSLIPEDTAVYYCAADSAVYSRSSRWWLRASSYSYWGQGTQVTVSS
notes: as for B13
B20: SB10 (VHH)
VHH: QVQLQESGGGLVQAGDSLRVSCAASGRTLRNYHVGWFRQAPGKDREFVAAVSWDDSTYYTESVKGRFTISRDNANNTVYLQMNSLKPEDTAVYYCAADRGSVPFYSDFLRGRYEYGGQGTQVTVSS
notes: as for B13
B21: SB12 (VHH)
VHH: QVQLQQSGGGLVQAGGSLRLSCAASGRKISSLTIYGMGWFRQAPGKEREFVAAISQAGGTTSYADSIKDRFTISRDNDKNTAYLQMNNLKPEDTAVYYCAADFLPRIISRRYSDYEYWGQGAQVTVSS
notes: as for B13
B22: SB9 (VHH)
VHH: QVQLQESGGGLVQPGGSLRLSCAASGFTFGSYDMSWVRQAPGKGPEWVSGINSGAISTYYADSVKGRFTISRDNAKNTLYLQMNSLKPEDTAVYYCAKADLDKMMEMVAGRPFLPHDPNFGSWGQGTQVTVSS
notes: as for B13
B23: SB11 (VHH)
VHH: QVQLQESGGGMVQAGGSLRLSCAASGRTFRGYGMGWWRQAPGQERDIVAWIRWSDSTGFYIDSVKGRFTISSDNAKNTVYLQMNSLKVEDTAVYYCAAARGTTGWGAVEDRYWGQGAQVTVSS
notes: as for B13

These binders were tested against T1, RVFV Gn ectodomain (RVFV-Gn_(ecto)) (Rift Valley fever virus, Clone 13, UniProt A2T080) (assay: not given). Conditions: not given.
B1: binds. B2: binds. B3: binds. B4: binds. B5: binds. B6: binds. B7: binds. B8: binds. B9: binds. B10: binds.

These binders were tested against T1, RVFV Gn ectodomain (RVFV-Gn_(ecto)) (assay: ELISA). Conditions: both partners purified.
B11: binds. B12: binds. B13: binds. B14: binds. B15: binds.

Each binder was assayed against RVFV-Gn head domain (Rift Valley fever virus, Clone 13, UniProt A2T080) (assay: ELISA). Conditions: both partners purified.
B16: binds. B11: binds. B12: binds. B13: binds. B14: binds. B15: binds.

Each binder was assayed against RVFV-Gn subdomain B (Rift valley fever virus (RVFV).) (assay: ELISA). Conditions: both partners purified.
B12: binds. B13: binds. B14: binds.

Each binder was assayed against T2, SB10-ELP2ABD-SB10 (Lama glama) (assay: ELISA; […] (25 mM Tris-HCl, 2 mM EDTA, 140 mM NaCl, pH 7.6, […]). Conditions: both partners purified.
T2 construct: also called bivalent ELP-based VHH complex; copies: + +
B17: binds.

Biological target: B17
Test: ELISA; competition ELISA: antigen on Strep-Tactin microplates; competing VHH at 11.11 µg/ml, 1 hr RT, then HRP-conjugated analyte VHH, 1 hr RT; competition as percentage of blocking, above 50% counted as efficient
Conditions: both partners purified
B18: binds. B19: binds. B20: binds. B21: binds. B22: binds. B23: binds.
